In US20250034621, “LOCKED APTAMER HAIRPIN INTEGRATED HYBRIDIZATION CHAIN REACTION FOR RAPID, INSTRUMENT-FREE BIOMARKER DETECTION” (The Texas A&m University System, published 2025):

Molecular target: cardiac troponin I (cTnI) (UniProt P19429 P19429:2-210)
Assay: cTnI-dependent opening of aptamer on magnetic particles, supernatant fluorescence of tagged HTG-H1 falls with cTnI; 0.5 ng/mL not distinguishable from blank; native PAGE HCR products also cTnI-dependent (p77, FIG. 6B); SERRS LOD 0.5 pg/mL in serum (p85), colorimetric hyperbranched HCR LOD 0.117 ng/mL (p104); high-salt buffer 20 mM Tris pH 7.6, 1000 mM NaCl, 5 mM KCl, 2 mM MgCl2, 1 mM CaCl2
Conditions: tags: Genscript (SERRS studies); label: biotin (on streptavidin magnetic particles)

cardiac troponin I (cTnI), sequence (P19429 2-210, one chain of several): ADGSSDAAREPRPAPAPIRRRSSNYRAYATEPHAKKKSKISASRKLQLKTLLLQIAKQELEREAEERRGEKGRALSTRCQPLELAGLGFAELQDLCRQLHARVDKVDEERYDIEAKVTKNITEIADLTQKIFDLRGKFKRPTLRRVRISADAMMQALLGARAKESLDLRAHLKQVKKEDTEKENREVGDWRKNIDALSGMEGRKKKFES

B1: locked Tro4 aptamer-initiator (Tro4 + A8 spacer + HCR initiator + blocker) (ssDNA)
DNA: TTTTTCGTGCAGTACGCAACCTTTCTCATGCGCTGCCCCTCTTAAAAAAAAGCAGATCCTAAGCCGCACCCAATTAAGGGGCAGCGCATGAGAAAGGTTCCGTA
Does B1 bind?
Result: binds
